# Results reported in article PMC9107513.
# Key:
# [1] = MS of immunoprecipitated endogenous RYR1, C2C12; details: glycan lost; control: control siRNA
# [2] = western blot, endogenous RYR1, C2C12 myotubes ± MG-132; details: glycan lost; control: vector / control siRNA
# [3] = IP of tagged RYR1, blot of tagged ubiquitin, MG-132; details: glycan lost; control: vector / control siRNA
# [4] = western blot, exogenous wild-type RYR1 in C2C12; details: glycan lost; control: vector / control siRNA
# [5] = IP of exogenous RYR1, phospho-Ser/Thr blot; details: glycan lost; control: control siRNA
substance,measurement,setting,value
RYR1: OGT knockdown,other: phosphorylation at T4338,[1],increases
RYR1: siRNA-mediated knockdown of OGT,expression_or_secretion,[2],increases
human RYR1: OGT knockdown,other: ubiquitination,[3],decreases
same,expression_or_secretion,[4],increases
same,other: Ser/Thr phosphorylation,[5],increases
